Key:
Assay in all cases: alanine scan, flow cytometry, HEK293-T;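 also: antibody binding to each alanine-substituted CD33 mutant expressed transiently in HEK293-T, read as fluorescence minus background, mean of duplicates, relative to wild-type CD33 set as 100%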
human CD33 H300A = human CD33 H300A (human, UniProt P20138 18-364)
Experimental: (§1) An alanine scan on human CD33 was performed to the determine the residues on CD33 that are involved in binding to the antibodies investigated. […] Briefly, a mutation library of CD33 was created by high-throughput, site-directed mutagenesis. Each residue was individually mutated to alanine, with alanine codons mutated to serine. The mutant library was arrayed in 384-well microplates and transiently transfected into HEK293-T. Following transfection, cells were incubated with the indicated antibodies (IgG or Fab) at concentrations pre-determined using an independent immunofluorescence titration curve on wild type CD33. […] Binding of each antibody to each mutant clone was determined in duplicates. For each point, background fluorescence was subtracted from the raw data, which were then normalized to antibody reactivity with wild type CD33.
(§2) Critical residues for antibody binding (outlined in dark grey) were residues whose mutations led to a binding of the test Abs of less than 20%. Additional secondary residues (outlined in light grey) were identified that led to a binding of the test Abs of between 20 and 40% as compared to the wild type CD33.

human CD33 A261S = human CD33 A261S (human, UniProt P20138 18-364)
Experimental: as §1, §2

human CD33 I281A = human CD33 I281A (human, UniProt P20138 18-364)
Experimental: as §1, §2

human CD33 G304A = human CD33 G304A (human, UniProt P20138 18-364)
Experimental: as §1, §2

human CD33 V282A = human CD33 V282A (human, UniProt P20138 18-364)
Experimental: as §1, §2

human CD33 T284A = human CD33 T284A (human, UniProt P20138 18-364)
Experimental: as §1, §2

human CD33 G264A = human CD33 G264A (human, UniProt P20138 18-364)
Experimental: as §1, §2

human CD33 H259A = human CD33 H259A (human, UniProt P20138 18-364)
Experimental: as §1, §2

human CD33 L273A = human CD33 L273A (human, UniProt P20138 18-364)
Experimental: as §1, §2

human CD33 H310A = human CD33 H310A (human, UniProt P20138 18-364)
Experimental: as §1, §2

human CD33 C274A = human CD33 C274A (human, UniProt P20138 18-364)
Experimental: as §1, §2

human CD33 S248A = human CD33 S248A (human, UniProt P20138 18-364)
Experimental: as §1, §2

human CD33 G245A = human CD33 G245A (human, UniProt P20138 18-364)
Experimental: as §1, §2

human CD33 A293S = human CD33 A293S (human, UniProt P20138 18-364)
Experimental: as §1, §2

human CD33 T292A = human CD33 T292A (human, UniProt P20138 18-364)
Experimental: as §1, §2

human CD33 K250A = human CD33 K250A (human, UniProt P20138 18-364)
Experimental: as §1, §2

human CD33 V267A = human CD33 V267A (human, UniProt P20138 18-364)
Experimental: as §1, §2

human CD33 Q251A = human CD33 Q251A (human, UniProt P20138 18-364)
Experimental: as §1, §2

human CD33 L270A = human CD33 L270A (human, UniProt P20138 18-364)
human CD33 L270A, sequence (P20138 18-364 L270A limits assumed): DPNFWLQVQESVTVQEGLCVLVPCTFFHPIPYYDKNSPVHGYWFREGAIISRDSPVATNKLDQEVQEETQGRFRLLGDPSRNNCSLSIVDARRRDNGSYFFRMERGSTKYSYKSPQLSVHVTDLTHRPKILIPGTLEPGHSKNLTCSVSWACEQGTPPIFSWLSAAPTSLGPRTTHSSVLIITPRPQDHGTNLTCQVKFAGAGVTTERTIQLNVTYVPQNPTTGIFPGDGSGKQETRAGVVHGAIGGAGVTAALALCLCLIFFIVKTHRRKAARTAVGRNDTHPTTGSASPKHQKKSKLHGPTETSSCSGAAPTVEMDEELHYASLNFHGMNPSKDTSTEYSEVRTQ
Experimental: as §1, §2

human CD33 H259A, sequence (P20138 18-364 H259A limits assumed): as the sequence (P20138 18-364 L270A limits assumed) above, with H242A, A253L counted along it
human CD33 V282A, sequence (P20138 18-364 V282A limits assumed): as the sequence (P20138 18-364 L270A limits assumed) above, with A253L, V265A counted along it
human CD33 A293S, sequence (P20138 18-364 A293S limits assumed): as the sequence (P20138 18-364 L270A limits assumed) above, with A253L, A276S counted along it
human CD33 I281A, sequence (P20138 18-364 I281A limits assumed): as the sequence (P20138 18-364 L270A limits assumed) above, with A253L, I264A counted along it
human CD33 K250A, sequence (P20138 18-364 K250A limits assumed): as the sequence (P20138 18-364 L270A limits assumed) above, with K233A, A253L counted along it
human CD33 T292A, sequence (P20138 18-364 T292A limits assumed): as the sequence (P20138 18-364 L270A limits assumed) above, with A253L, T275A counted along it
human CD33 G245A, sequence (P20138 18-364 G245A limits assumed): as the sequence (P20138 18-364 L270A limits assumed) above, with G228A, A253L counted along it
human CD33 G264A, sequence (P20138 18-364 G264A limits assumed): as the sequence (P20138 18-364 L270A limits assumed) above, with G247A, A253L counted along it
human CD33 Q251A, sequence (P20138 18-364 Q251A limits assumed): as the sequence (P20138 18-364 L270A limits assumed) above, with Q234A, A253L counted along it
human CD33 G304A, sequence (P20138 18-364 G304A limits assumed): as the sequence (P20138 18-364 L270A limits assumed) above, with A253L, G287A counted along it
human CD33 H300A, sequence (P20138 18-364 H300A limits assumed): as the sequence (P20138 18-364 L270A limits assumed) above, with A253L, H283A counted along it
human CD33 C274A, sequence (P20138 18-364 C274A limits assumed): as the sequence (P20138 18-364 L270A limits assumed) above, with A253L, C257A counted along it
human CD33 S248A, sequence (P20138 18-364 S248A limits assumed): as the sequence (P20138 18-364 L270A limits assumed) above, with S231A, A253L counted along it
human CD33 T284A, sequence (P20138 18-364 T284A limits assumed): as the sequence (P20138 18-364 L270A limits assumed) above, with A253L, T267A counted along it
human CD33 H310A, sequence (P20138 18-364 H310A limits assumed): as the sequence (P20138 18-364 L270A limits assumed) above, with A253L, H293A counted along it
human CD33 V267A, sequence (P20138 18-364 V267A limits assumed): as the sequence (P20138 18-364 L270A limits assumed) above, with V250A, A253L counted along it
human CD33 L273A, sequence (P20138 18-364 L273A limits assumed): as the sequence (P20138 18-364 L270A limits assumed) above, with A253L, L256A counted along it
human CD33 A261S, sequence (P20138 18-364 A261S limits assumed): as the sequence (P20138 18-364 L270A limits assumed) above, with A244S, A253L counted along it

| Binder | Mean % WT Binding (human CD33 H300A) [% WT binding] | Mean % WT Binding (human CD33 A261S) [% WT binding] | Mean % WT Binding (human CD33 I281A) [% WT binding] | Mean % WT Binding (human CD33 G304A) [% WT binding] | Mean % WT Binding (human CD33 V282A) [% WT binding] | Mean % WT Binding (human CD33 T284A) [% WT binding] | Mean % WT Binding (human CD33 G264A) [% WT binding] | Mean % WT Binding (human CD33 H259A) [% WT binding] | Mean % WT Binding (human CD33 L273A) [% WT binding] | Mean % WT Binding (human CD33 H310A) [% WT binding] | Mean % WT Binding (human CD33 C274A) [% WT binding] | Mean % WT Binding (human CD33 S248A) [% WT binding] | Mean % WT Binding (human CD33 G245A) [% WT binding] | Mean % WT Binding (human CD33 A293S) [% WT binding] | Mean % WT Binding (human CD33 T292A) [% WT binding] | Mean % WT Binding (human CD33 K250A) [% WT binding] | Mean % WT Binding (human CD33 V267A) [% WT binding] | Mean % WT Binding (human CD33 Q251A) [% WT binding] | Mean % WT Binding (human CD33 L270A) [% WT binding] |
| --- | --- | --- | --- | --- | --- | --- | --- | --- | --- | --- | --- | --- | --- | --- | --- | --- | --- | --- | --- |
| Refmab #4 (antibody, V domains shown, The alanine scan used IgG or Fab) VH: QVQLVQSGAEVKKPGESVKVSCKASGYTFTNYGMNWVKQAPGQGLEWMGWINTYTGEPTYADKFQGRVTMTTDTSTSTAYMEIRNLGGDDTAVYYCARWSWSDGYYVYFDYWGQGTSVTVSS VL: DIVMTQSPDSLTVSLGERTTINCKSSQSVLDSSTNKNSLAWYQQKPGQPPKLLLSWASTRESGIPDRFSGSGSGTDFTLTIDSPQPEDSATYYCQQSAHFPITFGQGTRLEIK | 95.2 | 65.8 | 122 | 95 | 111 | 111 | 89.9 | 114 | 115 | 94.3 | 103 | 99.7 | 94.9 | 106 | 100 | 106 | 116 | 97.5 | 97.3 |
| Refmab #3 (antibody, V domains shown, The alanine scan used IgG or Fab) VH: QVQLVQSGAEVKKPGSSVKVSCKASGYTFTDYNMHWVRQAPGQGLEWIGYIYPYNGGTGYNQKFKSKATITADESTNTAYMELSSLRSEDTAVYYCARGRPAMDYWGQGTLVTVSS VL: DIQMTQSPSSLSASVGDRVTITCRASESVDNYGISFMNWFQQKPGKAPKLLIYAASNQGSGVPSRFSGSGSGTDFTLTISSLQPDDFATYYCQQSKEVPWTFGQGTKVEIK | 68.3 | 121 | 91 | 121 | 73.2 | 83.2 | 89 | 104 | 125 | 101 | 111 | 133 | 127 | 72.9 | 99.6 | 146 | 106 | 93.3 | 125 |
| Refmab #2 (antibody, V domains shown, The alanine scan used IgG or Fab) VH: QVQLVQSGAEVKKPGSSVKVSCKASGGTFSDYAISWVRQAPGQGLEWMGRIIPILGVADYAQKFQGRVTITADKSTRTAYMELSSLRSEDTAVYYCARNWADAFDIWGQGTMVTVSS VL: DIQLTQSPSSLSASVGDRVTITCRASQGISSVLAWYQQKPGKAPKLLIYDASSLESGVPSRFSGSGSGTDFTLTISSLQPEDFATYYCQQFDSSITFGQGTKLEIK | 98.9 | 100 | 114 | 111 | 112 | 119 | 105 | 109 | 117 | 112 | 117 | 93.6 | 112 | 114 | 94.2 | 108 | 114 | 117 | 119 |
